# IntAct's records for PubMed 17289029
# B1: Zinc finger protein GLIS2 (Homo sapiens), Q9BZE0 (parent)
# chain: MHSLDEPLDLKLSITKLRAAREKRERTLGVVRPRALHRELGLVDDSPTPGSPGSPPSGFLLNSKFPEKVEGRFSAAPLVDLSLSPPSGLDSPNGSSSLSPERQGNGDLPPVPSASDFQPLRYLDGVPSSFQFFLPLGSGGALHLPASSFLTPPKDKCLSPDLPLPKQLVCRWAKCNQLFELLQDLVDHVNDYHVKPEKDAGYCCHWEGCARHGRGFNARYKMLIHIRTHTNEKPHRCPTCSKSFSRLENLKIHNRSHTGEKPYVCPYEGCNKRYSNSSDRFKHTRTHYVDKPYYCKMPGCHKRYTDPSSLRKHIKAHGHFVSHEQQELLQLRPPPKPPLPAPDGGPYVSGAQIIIPNPAALFGGPGLPGLPLPLAPGPLDLSALACGNGGGSGGGGGMGPGLPGPVLPLNLAKNPLLPSPFGAGGLGLPVVSLLAGAAGGKAEGEKGRGSVPTRALGMEGHKTPLERTESSCSRPSPDGLPLLPGTVLDLSTGVNSAASSPEALAPGWVVIPPGSVLLKPAVVN
# Variants of: B1
# Settings: with ctnb1_human CTNNB1, P35222
# Sequence of ctnb1_human CTNNB1, P35222 (P35222 whole entry): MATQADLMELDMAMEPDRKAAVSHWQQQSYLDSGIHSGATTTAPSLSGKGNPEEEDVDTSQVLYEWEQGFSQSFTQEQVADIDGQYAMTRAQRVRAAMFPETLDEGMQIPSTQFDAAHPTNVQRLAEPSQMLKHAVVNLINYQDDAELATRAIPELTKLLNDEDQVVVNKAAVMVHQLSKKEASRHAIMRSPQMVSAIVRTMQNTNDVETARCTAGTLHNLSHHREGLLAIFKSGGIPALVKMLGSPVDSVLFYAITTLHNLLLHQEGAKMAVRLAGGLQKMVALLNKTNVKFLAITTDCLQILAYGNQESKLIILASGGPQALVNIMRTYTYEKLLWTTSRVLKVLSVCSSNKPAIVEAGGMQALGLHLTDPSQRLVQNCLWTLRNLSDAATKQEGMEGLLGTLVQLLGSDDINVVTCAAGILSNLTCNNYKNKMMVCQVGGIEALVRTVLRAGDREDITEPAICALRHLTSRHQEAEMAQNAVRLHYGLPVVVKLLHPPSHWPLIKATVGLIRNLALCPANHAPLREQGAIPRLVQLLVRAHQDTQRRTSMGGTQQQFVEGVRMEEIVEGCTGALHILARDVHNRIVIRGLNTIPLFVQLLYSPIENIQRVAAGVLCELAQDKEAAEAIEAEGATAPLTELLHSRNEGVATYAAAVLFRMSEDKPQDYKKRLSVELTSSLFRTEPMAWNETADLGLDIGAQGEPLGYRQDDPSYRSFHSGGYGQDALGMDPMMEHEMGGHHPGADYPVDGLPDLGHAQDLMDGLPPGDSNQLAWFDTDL
row,effect of a mutation on the interaction,Variant
1,disrupting interaction,MHSLDEPLDLKLSITKLRAAREKRERTLGVVRPRALHRELGLVDDSPTPGSPGSPPSGFLLNSKFPEKVEGRFSAAPLVDLSLSPPSGLDSPNGSSSLSPERQGNGDLPPVPSASDFQPLRYLDGVPSSFQFFLPLGSGGALHLPASSFLTPPKDKCLSPDLPLPKQLVCRWAKANQLFELLQDLVDHVNDYHVKPEKDAGYCCHWEGCARHGRGFNARYKMLIHIRTHTNEKPHRCPTCSKSFSRLENLKIHNRSHTGEKPYVCPYEGCNKRYSNSSDRFKHTRTHYVDKPYYCKMPGCHKRYTDPSSLRKHIKAHGHFVSHEQQELLQLRPPPKPPLPAPDGGPYVSGAQIIIPNPAALFGGPGLPGLPLPLAPGPLDLSALACGNGGGSGGGGGMGPGLPGPVLPLNLAKNPLLPSPFGAGGLGLPVVSLLAGAAGGKAEGEKGRGSVPTRALGMEGHKTPLERTESSCSRPSPDGLPLLPGTVLDLSTGVNSAASSPEALAPGWVVIPPGSVLLKPAVVN [C175A]
